Measured values taken from the DeepSol protein solubility set.

Assay: soluble on expression in E. coli; label from the status in PepcDB or PDB records

Sequence	soluble on expression in E. coli
MKIFLENLYHSDCYFLPIRDNQQVLVGVELITHFSSEDGTVRIPTSRVIAQLTEEQHWQLFSEQLELLKSCQHFFIQHKLFAWLNLTPQVATLLLERDNYAGELLKYPFIELLINENYPHLNEGKDNRGLLSLSQVYPLVLGNLGAGNSTMKAVFDGLFTRVMLDKSFIQQQITHRSFEPFIRAIQAQISPCCNCIIAGGIDTAEILAQITPFDFHALQGCLWPAVPINQITTLVQR	not soluble
MKIFVCEDDQRQREHMVSIIKNYIMIEEKPMELALATNDPYEVLEQSKELNDIGCYFLDIQLEADMNGIKLASEIRKHDPVGNIIFVTSHSELTYLTFVYKVAAMDFIFKDDPSELKMRIIDCLETAHTRLKLLSKESNVDTIELKRGSNSVYVQYDDIMFFESSTKSHRLIAHLDNRQIEFYGNLKELAQLDERFFRCHNSFVINRHNIESIDSKERIVYFKNGENCFASVRNVKKI	not soluble
MKIGIIAAMPEELAYLVQHLDNTQEQVVLGNTYHTGTIASHEVVLVESGIGKVMSAMSVAILADHFQVDALINTGSAGAVAEGIAVGDVVIADKLAYHDVDVTAFGYAYGQMAQQPLYFESDKTFVAQIQESLSQLDQNWHLGLIATGDSFVAGNDKIEAIKSHFPEVLAVEMEGAAIAQAAHTLNLPVLVIRAMSDNANHEANIFFDEFIIEAGRRSAQVLLAFLKALD	soluble
MKIISEGETKLMVPEESTLSKKDTVFYNPVMETNRDISVSVVQSFLDDFKRDEFLMCDPLGGSGARGIRYAKELKFNGDLKVSIGDINPSAVKMIKENLKLNELENVEVFHEDANVLLSKNFKVFNVVDLDPFGSPVPYLDSGIRASLTKGGLLCMTATDTAVLCGAYRKTCIRKYNAVPLKGDKELAVRLMIGYAVKMASKYDIGLKPIFSHVTDHYARTFMVTERGAGKADSAIENLGYIRQDSEQKSFKTFEEGSEKGYAGPFYLGEISDKNIVQNALNTAKTRNYSKRAVNILEMISRESEINQVGCFDIHELCSFIKKLVPPVNDIMENLKENGFKVTRVHYNPYGLKTDAELSDLVVLISEYHSKKYLEHHHHHH	not soluble
MKILLIEDNQRTQEWVTQGLSEAGYVIDAVSDGRDGLYLALKDDYALIILDIMLPGMDGWQILQTLRTAKQTPVICLTARDSVDDRVRGLDSGANDYLVKPFSFSELLARVRAQLRQHHALNSTLEISGLRMDSVSHSVSRDNISITLTRKEFQLLWLLASRAGEIIPRTVIASEIWGINFDSDTNTVDVAIRRLRAKVDDPFPEKLIATIRGMGYSFVAVKK	soluble
MKINRHILDNGLRLVHSQDESTQMVALNVLYNVGARDEHPEHTGFAHLFEHLMFGGSVNIPDYDMPLQLAGGENNAWTNNDITNYYLTVPRQNVETGFWLESDRMLSLDFSERSLEVQRGVVMEEFKQRCLNQPYGDVGHLLRPLAYRAHTYQWPTIGKDLSHIANATLEEVKAFFFRFYAPNNAVLAVTGNISFEEAVALTEKWFGPIPRREVPQRNLPQEPEQTEERRLTVERNVPLDSLFMAYHMCSHDHPDYYAFDILSDLLSNGRSSRLNQRLVQQKQLFSSIDAYISGSVDAGLFHISGKPAAGVSLEQAEAAVREELERLQQEPVDEQELEKVKNKFESTQIFGNINYLNVATNLAWFELLGRAEDMEKEVERYRAVTAGQLQKVAQSAFRKENGVILYYKKQIS	not soluble
MKIPDLTNYEHLIGGLCGGVTSTVVCHPFDLLKIRFSANEGSSLRPQYSSYADAVRKIVRVEGVRGLYQGWTPSLIGASLSWGLYFQWYNSLRTKIYENFSTGSKLANNLISGCISGSAIMCITNPIWLTKTRLCLQYENQQSKKYAGMMDCLKKTVKQEGFFGLYRGFVTGVIGTTHGAVQIAAYSWIIDKRCQSQGLPKDSFLSQTDYVIASSTSKVLATTITFPYQVLRTRMQDHNTDSRGVWKTTLKTIHNEGIGGLWKGCLIANVRQLPAAVVTFLTYENVKRLVGMTKQI	not soluble
MKIRQEKPAEYQAVERLTYQAFKELNLTENWRPTEHFIVHLLRESADFIPELSLVSETDQGKLTGHIMSSKAKLRLPDHTEKAVLTVGPLSVHPEAQNTGVGSALIKHSVQKAKELGIGGLIILGHPTYYTKFGFVPATTFQITLPEKETSEALLALELLPGYFGTSGGEWHFSTCFAYPETHPAELEAFEAELGINE	not soluble
MKITDLRCAVIGKHPIVRIVTDEGLHGLGEVEFTKTYLKPFVLHFREALIGEDPTDVERVMLKIRQRGSFKPYGAAVSAIEHALWDIAGKAAGVPVYKLLGGKVRDKVRVYNGSIRRKRAGDRPEDYAADVKWMMEQPQNFFMVKQGISFHSNMKDSIEGFHYGVTQKKAGYHGAMDQGVISERGFNHMLDCVIAMKEVLGDKVSLALDCGPGWMLPDAIKFARAVEKYNLMWLEDMLTGDYVPWVNPQAYRELTTSTSTPIHTGEQIYLRHNFKELIETQAVRVIGPDPADIGGIAELKWVAEHAYMHSILMAPHGTANGLLGLGALINVCATLPANYVAFEYPSASDPWWEDLVIGLPAQIVRDSMVDLLEAPGLGLDIDAEAARKYLGEEDAGFFD	not soluble
MKITKISLFQKVLPYCSGSLAIGDLSENRTKPFDTFTSSVVVINTDQGVSGVGESCPWVSDNLNEKEVYDCLASRLLGEDPHNLKGIVKNMDAVIQGHTFAKSAIDMACWDIKAKDNGVPLFELLGGMLTDGAPLYRCVMEQEHDKIKAEVEQYRASGYKYFKLRVGIEPDKDIELIKFAANLAEPGEIVYADANCRWTLSEALEVVKAIEGLDVMIEQPCLSYEDCIKVRENTGLLIKLDELVTDLTMAKKIVRDHTADVVCIKMSRVGGLSKALEIRDFFVKKGIKVVTECMMGGEIVSAAVSHFSASTPSEFLFNTGDLHAYVTASTGNISPPTLNGRIYCNDSPGLGVEPDLTSLGTPIAIYQN	soluble
MKIVDVLCTPGLTGFYFDDQRAIKKGAGHDGFTYTGSTVTEGFTQVRQKGESISVLLVLEDGQVAHGDCAAVQYSGAGGRDPLFLAKDFIPVIEKEIAPKLIGREITNFKPMAEEFDKMTVNGNRLHTAIRYGITQAILDAVAKTRKVTMAEVIRDEYNPGAEINAVPVFAQSGDDRYDNVDKMIIKEADVLPHALINNVEEKLGLKGEKLLEYVKWLRDRIIKLRVREDYAPIFHIDVYGTIGAAFDVDIKAMADYIQTLAEAAKPFHLRIEGPMDVEDRQKQMEAMRDLRAELDGRGVDAELVADEWCNTVEDVKFFTDNKAGHMVQIKTPDLGGVNNIADAIMYCKANGMGAYCGGTCNETNRSAEVTTNIGMACGARQVLAKPGMGVDEGMMIVKNEMNRVLALVGRRK	soluble
MKIWSKEEVVNKLHEIKNKGYLSVPTDMFRTDDGVVGQILERQFGVQENNITLGDLGEFELKGMRNRKAKSNLTLFHKKPVAGQTVIQIFNRFGYVKPSSRNPEVMKKKLFTTIKGGRLNNLGLTLNAKHASEINLYYQDEYLSTWDLNLSKIEKLVLVFAETIGRANSPEEQFHFTKAYMLTEINDITSLINDGVLVMDLCIDQDLSKSKGPHDRGPHLRIPISKLDKLYRNIERLL	soluble
MKIYYLGPEGSYTEKAALKFAELTNLKITPAESIYSVFREVERGNYGVVPTENSIEGSVTLTLDLLLRFPVKIFGETSLEIKHALLGYDLSKIRVVLSHPQALAQCREFIQRMRWGVRETNSTAEAVKIVAESNDPTLAAIGSREAAEIYGLKVLAEDIQDYPNNKTRFILIGREDM	not soluble
MKKAVVLLSGGMDSATTLAIARQSGFACYALSIDYGQRHVAELAAAARIGQSLQVSDHQFLKLDLAVLASSVLTDISATVPLHGTSTGIPVTYVPARNTIMLALALAWAEVLGSHDIFIGVTAVDYSGYPDCRRDYIDAFEKMANLATKAGREGMVLTVHAPLIDLPKREIIQCGMELGIDYGLTVSCYQADEAGYACGQCDACHIRRAGFEAADIPDPTCYRNKQIS	not soluble
MKKDIILSGVGGQGILSIATVIGKAALKDGLYMKQAEVHGMSQRGGDVQSNLRISDQPIASDLIPSGKCDLIISLEPMEGLRYLPYLGHEGWLVTNETPFVNIPNYPAESDVMAEINKLPHKVVLNVDKVAKELGSTRVANIVLLGATIPFLGIDYEKIQDSIREIFQRKGDAIVELNLKALAAGKEIAEK	soluble
MKKDIILSGVGGQGILSIATVIGKAALKEGLYMKQAEVHGMSQRGGDVQSNLRISDKPIASDLIPSGKCDLIISLEPMEGLRYLPYLSPEGWLVTNETPFVNIPNYPEEDKVMAEINKLPHKIVLNVDKVAKEVGSARVANIVLLGATIPFLGIDYEKVQDSIREIFLRKGEAIVEMNLKALAAGKEIAEKLMQ	not soluble
MKKIGFVGAGSMAEAMINGILQSGITKPEHIYITNRSNDERLIELKETYSVRPCRDKNEFFTHTDIIILAFKPKDAAESIDSIRPYIKDQLVISVLAGLTIETIQHYFGRKLAVIRVMPNTSAAIRKSATGFSVSTEASKNDIIAAKALLETIGDATLVEERHLDAVTAIAGSGPAYVYRYIEAMEKAAQKVGLDKETAKALILQTMAGATDMLLQSGKQPEKLRKEITSPGGTTEAGLRALQDSRFEEAIIHCIEETAKRSAEIKEQFAGAALERHSLEHHHHHH	soluble
MKKIHPSAVIEEGAQLGDDVVIEAYAYVSKDAKIGNNVVIKQGARILSDTTIGDHSRVFSYAIVGDIPQDISYKEEQKSGVVIGKNATIREFATINSGTAKGDGFTRIGDNAFIMAYCHIAHDCLLGNNIILANNATLAGHVELGDFTVVGGLTPIHQFVKVGEGCMIAGASALSQDIVPFCLAEGNRASIRSLNLVGIRRRFDKDEVDRLSRAFKTLFRQGDLKENAKNLLENQESENVKKMCHFILETKRGIPVYRGKNNA	soluble
MKKILLLILITGLFSFGNSKNKIPTRKFTSVKISGPRYRLEGAFGILSSKENSSYMNNRFISNSISLLSEWKVQVNEKIDATFGPKVTLDFSFSIFKGLYTYKPNLNLGAEANFNYRIKEKMKVYGGVEIGTGVGISIENANIHKTILTTISKISVGVKINDKYNIGVYLGNNIKGMLGIEAGYTF	not soluble
MKKILVTGSLGQIGSELVMKLRDVYGASNVIATDIRETDSEVVTSGPFETLDVTDGQKLHDIAKRNEVDTIIHLAALLSATAEKNPLFAWNLNMGGLVNALEAARELNCKFFTPSSIGAFGPSTPKDNTPQDTIQRPTTMYGVNKVAGELLCDYYHQKFGVDTRGVRFPGLISYVAPPGGGTTDYAVEIYYEAIKKGAYTSYIAEGTYMDMMYMPDALQAIISLMEADPSKLVHRNAFNITAMSFEPEQIAASIRKHIPTFTMDYAVDPARQTIADSWPNSIDATAAMKEWGFKAEYDLDKMTTDMLAKLKKKLTAELVMN	not soluble
MKKISIEERPDWRATAEREGFNFHTIDGERYWDERGYYLFTEQQITRDLEAPTQALHQMCMDAVARVVDSEELLHQLAIPPAFFDVIQTSWKQGHPHLYARFDFAYDGTGPAKMYEINADTPTSLMEAGAFQLLWLEEQMARGVLPAHASQFNSIAEDLVRAFAEFPGASPFYFAAMSGSVEDRVTTDFLRRMAAHVGIDARHIDIEDIGLNDQGRFVDLDGRWIERLFKLHAWEHIFHEAFGKNVTASGTQFVEPAWKAILSNKGILPLLWQFNEGHPNLLPSRVDQDVTKPVPKGWVRKPYFSREGANIEMRTPGDQVIAVDGPYTDAPYILQAYSPLPKFGDSYTLIGSWVIGDLASGIGIREDDSLITKDTSRFLPHVVID	not soluble
MKKKIGLLVMAYGTPYKEEDIERYYTHIRRGRKPSPEMLEDLTERYRAIGGISPLATITLEQAKKLEKRLNEVQDEVEYHMYLGLKHIEPFIEDAVKEMHNDGIQDAIALVLAPHYSTFSVKSYVGRAQEEAEKLGNLTIHGIDSWYKEPKFIQYWVDAVKSIYSGMSDAEREKAVLIVSAHSLPEKIIAMGDPYPDQLNETADYIARGAEVANYAVGWQSAGNTPDPWIGPDVQDLTRELNEKYGYTSFVYAPVGFVAEHLEVLYDNDFECKVVTDEIGAKYYRPEMPNASDAFIDCLTDVVVKKKESVM	soluble
